From PMC8026125 (Science Advances, 2021) come the findings set out here.

T1: Ccl1 (yeast, UniProt P37366 1-393)
T1 sequence: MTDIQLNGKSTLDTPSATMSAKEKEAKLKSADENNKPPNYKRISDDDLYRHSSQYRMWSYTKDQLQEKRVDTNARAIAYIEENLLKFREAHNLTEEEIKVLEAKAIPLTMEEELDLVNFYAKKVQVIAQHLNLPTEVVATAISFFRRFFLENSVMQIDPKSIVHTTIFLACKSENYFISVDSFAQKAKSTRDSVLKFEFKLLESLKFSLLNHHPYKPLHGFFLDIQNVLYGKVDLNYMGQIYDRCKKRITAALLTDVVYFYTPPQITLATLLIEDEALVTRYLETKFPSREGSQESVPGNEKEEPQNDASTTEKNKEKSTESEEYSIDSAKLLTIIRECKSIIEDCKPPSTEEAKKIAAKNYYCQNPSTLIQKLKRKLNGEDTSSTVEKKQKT

B1: Kin28 (enzyme)
chain: MKVNMEYTKEKKVGEGTYAVVYLGCQHSTGRKIAIKEIKTSEFKDGLDMSAIREVKYLQEMQHPNVIELIDIFMAYDNLNLVLEFLPTDLEVVIKDKSILFTPADIKAWMLMTLRGVYHCHRNFILHRDLKPNNLLFSPDGQIKVADFGLARAIPAPHEILTSNVVTRWYRAPELLFGAKHYTSAIDIWSVGVIFAELMLRIPYLPGQNDVDQMEVTFRALGTPTDRDWPEVSSFMTYNKLQIYPPPSRDELRKRFIAASEYALDFMCGMLTMNPQKRWTAVQCLESDYFKELPPPSDPSSIKIRN
modifications: phosphothreonine at 162 (pT162)
B2: Tfb3 (natural protein)
chain: MLMDEYEENKDMCPICKTDRYLSPDVKFLVNPECYHRICESCVDRIFSLGPAQCPYKGCDKILRKNKFKTQIFDDVEVEKEVDIRKRVFNVFNKTIDDFNGDLVEYNKYLEEVEDIIYKLDHGIDVAKTEEKLRTYEELNKQLIMNNLERSRTEIESFEQRQKFEKEMKLKKRLLERQIEEEERMNKEWTKKEIVNRLSTTTQDINETIEGVKNTVKLKKSSARRKLEELNRVLKNNPYFNSNVNVQNSRLKDAVPFTPFNGDREAHPRFTLKGSVYNDPFIKDLEHRKEFIASGFNTNYAYERVLTEAFMGLGCVISEEL

For assay [1], the target named is B2. Kind of assay: cryo-EM structure.
For assay [2], the target named is T1, Ccl1. The assay can be described thus: cryo-EM structure.

Turning to B1, the binding result in assay [1] and in assay [2] was “binds” throughout.
Consider B2, for which the binding result in assay [2] was “binds”.
